Experimental data as given in the DeepSol protein solubility set.

Experiment: soluble on expression in E. coli; label from the status in PepcDB or PDB records

Row | Sequence | soluble on expression in E. coli
1 | RKRRRGYDVDEQGKIVRGKGTVSSNYDNYVFDIWKQYYPQPVEIKHDHVLDHYDIHEELGTGAFGVVHRVTERATGNNFAAKFVMTPHESDKETVRKEIQTMSVLRHPTLVNLHDAFEDDNEMVMIYEFMSGGELFEKVADEHNKMSEDEAVEYMRQVCKGLCHMHENNYVHLDLKPENIMFTTKRSNELKLIDFGLTAHLDPKQSVKVTTGTAEFAAPEVAEGKPVGYYTDMWSVGVLSYILLSGLSPFGGENDDETLRNVKSCDWNMDDSAFSGISEDGKDFIRKLLLADPNTRMTIHQALEHPWLTPGNAPGRDSQIPSSRYTKIRDSIKTKYDAWPEPLPPLGRISNYSSLRKHRPQEYSIRDAFWDRSEAQPRFIVKPYGTEVGEGQSANFYCRVIASSPPVVTWHKDDRELKQSVKYMKRYNGNDYGLTINRVKGDDKGEYTVRAKNSYGTKEEIVFLNVTRHSEPLKFEPLEPMKKAPSPPRVE | soluble
2 | GAMGSMNGIDDLLNINDRIKQVQNERNELASKLQNLKQSLASNDTEVALSEVIAQDIIEVGASVEGLEQLRAKYGDLQILNKLEKVAVQQTQMQAGVDKLDSFERQLDELAEQPPDQFTLDDVKALHSKLTSVFATVPQINNIDSQYAAYNKLKSKVTGKYNDVIIQRLATNWSNTFDQKLLEAQWDTQKFASTSVGLVKCLRENSTKLYQLSLLYLPLEEETQNGDSERPLSRSNNNQEPVLWNFKSLANNFNVRFTYHFHATSSSSKIETYFQFLNDYLAENLYKCINIFHDDCNGLTKPVIHEQFINYVLQPIRDKVRSTLFQNDLKTLIVLISQILATDKNLLNSFHYHGLGLVSLISDEVWEKWINYEVEMANRQFINITKNPEDFPKSSQNFVKLINKIYDYLEPFYDLDFDLLVRYKLMTCSLIFMNLTSSYLDYILTVDSLNETRTKEQELYQTMAKLQHVNFVYRKIKSLSSNFIFIQLTDIVNSTESKKYNSLFQNVENDYEKAMSTDMQNSIVHRIQKLLKETLRNYFKISTWSTLEMSVDENIGPSSVPSAELVNSINVLRRLINKLDSMDIPLAISLKVKNELLNVIVNYFTESILKLNKFNQNGLNQFLHDFKSLSSILSLPSHATNYKCMSLHELVKILKLKYDPNNQQFLNPEYIKTGNFTSLKEAYSIKYLKDTKIQDALYRIIYGNIL | soluble
3 | MKFICPLFVVNNMEISRNFYEKVLNQKVQYDFGENVSFESGFAIHLKPHFSELTGINRNDIIQKSNNSELYFEEEDLDSFLKKLKEMNSIEYVHELKEQPWGQRVIRFYDPDMHIIEVGEPMESVVKRLLSEGLSVEETSKRTLMPEEFVRQFLLEHHHHHH | soluble
4 | MNLDKPLLPGQVIGIIGGGHLAKMMALSAREMGFRVGVLDPQIDCPAAQVADWQLLGAYNDPEALEKLAKRAQVITYEFEHADVDALTAIQHLANIPQGTDILAITQDRLMEKSFLEDNNIVIAPYATIVSPTDIQEAIDGIGYPCILKNTRGEGRYVLHSTSDLAPSMNLLREGTCVLEAWIPYEKELSVLISGNGRGEFATFPVVETIKKERKLHETIAPARIDDEVSGELQRIAKVIAKAVGLVGTLSIEMFYTETGGIYVNKILPRPEDAGNFSIDACSFSQYDTHIRGLCNWPMPTIQLLSEAVTVNVLGNEAYETMDIINEHPDWHFHYYGHSEAKAQRAMGHITILTKEIDETLEEIKETKIWS | not soluble
5 | ALMITDECINCDVCEPECPNGAISQGDETYVIEPSLCTECVGHYETSQCVEVCPVDAIIKDPSHEETEDELRAKYERITGEG | soluble
6 | MGSDKIHHHHHHGKPLRKVDLLADIRPDVEEEVCDSDTIVLPPPVKPIFVDTCKTGITCIEDYSDSTMRGMKHFYEALSKVKTMKRPVRIAYFGDSFIEADIFTADLREMLQQEFGGCGVGYVPVTSSISGYRPTVRHTFGGWSSHSSNDSVGFDKMQQDISGHYFFPREGAYVQLKGQSKYASRLDTCEVSTFYFLNKGFAAVRSKVNNAAEGELHEEVGTGGVQAVSVRGRIGQVRWSVEQADSVTFYGVAMDGRQGISLDNFSVRGSSGLHLRSIPLHTLCDFQRLRPYDLIVVQYGLNVATERGVKYDGYKKGMLSVIEHLKTAFPETSILLVSVGDREYKNENGDLRTMPGVKNLIRYQQSIAADSHIAFWNMYEAMGGQGSIVDMIGQKMANLDYTHINFKGGKHLAGILFETLMYGKEQYERRKAYEEE | not soluble
7 | MGSDKIHHHHHHMGNTINLSRFYKACNPSYTLNMGVMLDRQYYIDFANVRGCKIVEELQRTISRISPDEPTCQLFTGHIGCGKSTELQRLKTELETAGFHVVYFESSQDLDMADIDVSDILLSVARQVCVSLEAIGIKLKPGYFNNLFKEIGDFLQAPIELSGEAEFSLGIAKITAKTKDSTQLRNQLRQYLEPRTNNILQAINEEILEKAVEQLKRRGQKGLVVIVDNLDRVDMRPVASGRTQPEYLFIDRGEQLRRLKCHVVYTIPLALIFSSEYETLKNRLGGGIAPKVLPMVLVRQRDGSDYEPGMSLLRQLVLARAFPEVASQERQQLITELFEQTETLDRLCRVSGGHIRNLLGLLYSCLQRQDPPFSRDCLEAVIKDYRDDLLLAIDECQWELLFDVMQQQSVKGESDYQSLLRSMYLFEYRDPVGRWFGISPALAETEKVLAWRESK | not soluble
8 | MQRKTFADAECPIARSLERVGEWWSILIMRDALQGLRRFDEFSRSLDIAPNMLTRRLNALVEAGLLERQPYSQRPLRYQYVPTAKGEDFRVVLMAFVAWGNRHYAEEGQSVQLVERTSGRPVRSFMAALADGRTVPLEQCTVQAGPAASEEMRQRLAAMPERSELPAR | not soluble
9 | MASFKVKPEHTGPPDLYYNETEAAKYASNSHITAIQHEMAERALELLALPEGKSGFLLDIGCGTGMSSEVILDAGHMFVGVDVSRPMLEIARQDEDLESGDFIHQDMGLGMPFRPGSFDGAISISAIQWLCHANASDENPRKRLLFFFQSLYGCLGRGSRAVFQFYPENDEQCDLIMGQAHKAGFNGGLVVDFPEAAKRKKVYLVLMTGGVVQLPQALTEDGEESRTQIDNAGRRFVWNSRKNEKVAKGSKAWIEAKRQRQIKQGRDVRHESKYSGRKRKTKF | not soluble
10 | MMTDEERIELQQNNPLHGLKLETLLQELVDFYGWEILDTAMRLNCFNTNPSVASSVKYLKKTEWAREKLENFYLYRFKRMPRASNLEYDKPPRARTFPHGLEPKEPMELTVDSILKSQAKAASAHKARTSNRGGNYRRLEHHHHHH | soluble
11 | MILDVDYITEEGKPVIRLFKKENGKFKIEHDRTFRPYIYALLRDDSKIEEVKKITGERHGKIVRIVDVEKVEKKFLGKPITVWKLYLEHPQDVPTLREKVREHPAVVDIFEYDIPFAKRYLIDKGLIPMEGEEELKILAFDIETLYHEGEEFGKGPIIMISYADENEARVITWKNIDLPYVESVSTEKEMIKRFLRIIREKDPDIIVTYNGDSFDFPYLAKRAEKLGIKLTIGRDGSEPKMQRIGDMTAVEVKGRIHFDLYHVIRTTINLPTYTLEAVYEAIFGKPKEKVYADEIAKAWESGENLERVAKYSMEDAKATYELGKEFLPMEIQLSRLVGQPLWDVSRSSTGNLVEWFLLRKAYERNEVAPNKPSEEEYQRRLRESYTGGFVKEPEKGLWENIVYLDYKSLYPSIIITHNVSPDTLNLEGCKNYDIAPQVGHKFCKDIPGFIPSLLGHLLEERQKIKTKMKETQDPIEKILLDYRQKAIKLLANSFYGYYGYAKARWYCKECAESVTAWGRKYIELVWKELEEKFGFKVLYIDTDGLYATIPGGESEEIKKKALEFVKYINSKLPGLLELEYEGFYKRGFFVTKKRYAVIDEEGKVITRGLEIVRRDWSEIAKETQARVLETILKHGDVEEAVRIVKEVIQKLANYEIPPEKLAIYEQITRPLHEYKAIGPHVAVAKKLAAKGVKIKPGMVIGYIVLRGDGPISNRAILAEEYDPKKHKYDAEYYIENQVLPAVLRILEGFGYRKEDLRYQKTRQVGLTSWLNIKKS | soluble
12 | MVITDTAAWVQSQSRSIVDFISAPNSNSSLPPYVQIGAAAAVTMGLGYYLSKSSSSTSGSYSFSGVTYSGNVKPLVDPMNQSRILPDGSRISAYLKDDELQAFLFEDARTLYQGVRRGARLSNNGPMLGRRVKQSDGSIPYVWESYNTILERADNVSVAFRELGVPTGNAENIGIYSKNRAEWIITEFATYNYSNVIVPIYETLGSEASIFILNQAEIKIVVCDDISKATGLLKFKEQCPSLSTLVVMEPVTDELKTTASSLGVEVLTFEDLEKIGKNAKTRPAHIPPTPEDLATICYTSGTTGTPKGVMLTHANVIADGVCMDFFKHSGIAATDSMISFLPLAHMLERVIESVCFCVGAKVGFYRGDIRVLAEDIKELKPTVVPVVPRVLNRLYDKVMSEVNKSTLKKMLFDFAISYKARDMANFNIRNDGFFDNLVFKKIREGFGGRVRLMITGSAPLSTNVLTFVRAAMGCVVVEGYGQTECVAACTVSMEGDSLAGHVGMVIPSCQIKLVDVPELNYYAKDQAGEVCVKGHIIFKGYYKNEQQTKETIDEDGWLHTGDIGRWTPEGTLKIVDRKKHIFKLSQGEYVAPEKIENIYVRSKYVAQSFVHGESLKTCLIAIVVPDAEVLVPAMADQGIKGTFEELCNNDAVKKAILDDMVAVGKKAGLFSFEQVRDISLSAEQFSVENDLLTPTLKSKRPKLKAHYSKQLDAMYSKLP | not soluble
13 | MSLKITHTEIYRFSIPMEPFVIATGTMHFAQNVLIRIHTDNGLYGLGECSAFPMIVGENQDTCLVMAREFAKLLPGKDPLDIPGRMNDLLGYADRNTTIKSAFDMALFDLAAKHAGQPLYQFLGGNRKKVETDMTIGISSPEKMAQLAQHYQAQGCSILKVKLGKDIHEDIERVAQIRAAVGGMMTIRLDANQGWSFDDALYGLGALAKYDIEFCEQPMRSWYDDRLPELQLNSPIAIMADESCYNHHDARRLINSRSCEYLNIKFSKSGGILEAQKIHEVALQHGMKCMMGGMLESRLAATAKLHFALSAPNIVFFDLDTCMLGHLIDPVVGGMSYEGFILDVPEAPGIGADADPAFLDECESWRIEGHHHHHH | soluble
14 | MKIVIAPDSYKESLSALEVATAIEQGFREIWPDADYLKLPLADGGEGTVEAMVEATAGRIVHVEVTGPLGHRVNAFYGLSGDARSAFIEMAAASGLEQVPPAQRDPLKTTSWGTGELIRHALDAGVEHIIIGIGGSATNDGGAGMVQALGARLRDAQGNDIAQGGIGLETLASIDISGLDKRLSACHIEVACDVTNPLTGKEGASAVFGPQKGATPEMIERLDTALTRYAHLIARDLHVDVLDLAGGGAAGGMGAALYAFCGAQLRRGIEIVTDALHLEACLADADLVITGEGRIDSQTIHGKVPIGVANIAKRYNKPVIGIAGSLTADVSVVHEHGLDAVFSVIYTICTLEDALKNASENVRMTARNVAATLKAGQQLR | not soluble
15 | MKAKLVSLLAQANIKISDQQIQQLINLVNLLNKWNKAYNLTSVRDPQEMLVKHILDSLVVSPYLQGDRFIDVGTGPGLPGLPLAIINPSKQFVLLDSLGKRISFIRNAIRELRLTNVTPVLSRVEEYQPEDKFDGVLSRAFASLKDMTDWCHHLPKENGYFYALKGIYQEDEINELNKKYTIQKVIELSVPELIGERHLIVLRLEHHHHHH | not soluble
16 | HDNYADLSDTELTTLLRRYNIPHGPVVGSTRRLYEKKIFEYETQRRR | soluble
